# Measurements: the DeepSol protein solubility set
# Test: soluble on expression in E. coli; label from the status in PepcDB or PDB records
row,Sequence,soluble on expression in E. coli
1,MRVKHFELLTDEGKTFTHVDLYGKYTILFFFPKAGTSGCTREAVEFSRENFEKAQVVGISRDSVEALKRFKEKNDLKVTLLSDPEGILHEFFNVLENGKTVRSTFLIDRWGFVRKEWRRVKVEGHVQEVKEALDRLIEEDLSLNKHIEWRRARRALKKDRVPREELELLIKAAHLAPSCMNNQPWRFVVVDEEELLKKIHEALPGGNYWMKNAPALIAVHSKKDFDCALPDNRDYFLFDTGLAVGNLLVQATQMGLVAHPVAGYDPVKVKEILKIPEDHVLITLIAVGYLGDESELSEKHRELERSERVRKELSEIVRWNL,soluble
2,MPVVKVRENEPFDVALRRFKRSCEKAGILSEVRRREHYEKPTTVRKRAKAAAQKRHAKKLSRENARRVRLYLEHHHHHH,not soluble
3,MAHHHHHHMGRSFKVFLSNYVYRYGAAVWELRVCIERCAFPDYYAASPHDCAASSHYHAAYPPRSCSECGNHLSDPTELVSTSFRGRTGPAWLFSKVINVCEGQYEDRMMTTGQHTIVDIYCNNCRNNVGWKYEDSSEESQKYKKGKYILEKALLSFLVIDQHGKEHEFELKSSDCDF,not soluble
4,VVNKKIAYLGDEKPITIWTSLDNVTVIQLEKDETISYITTGFNKGWSIVPNSNHIFIQPKSVKSNLMFEKEAVNFALMTRDYQEFLKTKKLIVDAPDPKELEEQKKALEKEKEAKEQAQKAQKDKREKRKEERAKNRANLENLTNAMSNPQNLSNNKNLSEFIKQQRENELDQMERLEDMQEQAQANALKQIEELNKKQAEETIKQRAKDKINIKTDKPQKSPEDNSIELSPSDSAWRTNLVVRTNKALYQFILRIAQKDNFASAYLTVKLEYPQRHEVSSVIEEELKKREEAKRQKELIKQENLNTTAYINRVMMASNEQIINKEKIREEKQKIILDQAKALETQYVHNALKRNPVPRNYNYYQAPEKRSKHIMPSEIFDDGTFTYFGFKNITLQPAIFVVQPDGKLSMTDAAIDPNMTNSGLRWYRVNEIAEKFKLIKDKALVTVINKG,not soluble
5,MGSDKIHHHHHHMSQHVLLNSVDHKDIKIITERSAKYGDNVWFSVTFPAEFRSVQAHYPIFFQKDQTTGQFFAVALYGFQNNENLFLNNGTWQASYIPLTQRRQPFLIGQQSVREDGVERKQRVIHIDIASPRVSTTEGEALFHPYGGNTQYLDDIGDMLEGIHHGLIDSKHFIDLLIEHQLLESFTLDVKLDNGQQHQMMGFYTINEDTLASLSAEVLAQLHIKDYLKAIYMALASQARVRDLLNLKNAQG,not soluble
6,MGSDKIHHHHHHMTRTSPTHAKLAQPIVHAPGLFHSLAPGERKRDKLDVTHVAGDTTVRFVGFEPLDSTDLRVLQGLIALATAGLRNIRRLLRDGQSLRTSLDLKGDAQDERTVAARFTLASLADMAGFDRGGFGCRQMRASLQRLSNVTVLVDRPEFEGAFRLVSGYRLDKHTGELVVSISPLGTTAILGRQGYLRLNMDEVRRIHGEVAHLIHSRLHWVNQGDRRPVNMDTLCSYAYVGVRTGSALRKRRMAVRQALKELMDVGWTVTEKYPGTYLIGRPRRASDQGELVTRAGVNW,not soluble
7,VARCQVPDCEADISELKGYHKRHRVCLRCATASFVVLDGENKRYCQQCGKFHLLPDFDEGKRSCRRKLERHNNRRKRKPVDKGGVA,soluble
8,MAHHHHHHMVEAQRGYNCVWHSWPPPLQGVNKHFNSCAASPLPLQLLVGNRILLITKDPPLKVIKFFNEFQPEEYIKPGNICTQNVTLKFGDVLNVPVSMQKDLQKRKVTFDIVDQKIVIRKDKVLAEKDKLVSAENAKLLRMLNMKIANFDITVLGYWNVNKFVSLM,soluble
9,SADDFGFFSSSESGAPEAAEEDPAAAFLAQQESEIAGIENDEGFGAPAGSHAAPAQPGPTSGAGSEDMGTTVNGDVFQEANGPADGYAAIAQADRLTQEPESIRKWREEQRKRLQELDAASKVTEQEWREKAKKDLEEWNQRQSEQVEKNKINNRASEEAFVKESKEETPGTEWEKVAQLCDFNPKSSKQCKDVSRLRSVLMSLKQTPLSR,soluble
10,ARICDVFSRFDETPLASASVAQVHAACLKTGEEVVVKVVRPGLKPIIGQDLAWLFILARMAERVSADARLLHPVQVVMDYEKTIYDELDLLREAANSSQLRRNFEGSDLLYVPQVYWDWCR,not soluble
11,MGSDKIHHHHHHMSERPTLHVVSLSGGKDSTATLCVALEQHGSENVRAVMADTGNEDEQNLEYALDYLPRALGIPVDVVRADFTDEFATKRANLARIAAGEPESAVYGKREFMYRWTPEAAARALEVLHPTGIPFLDLCLVRGGFPSRKRQFCTQYLKTEQLVGYALREIDRGYAVWSWQGVRIDESDSRRERLQGTGACVKAFEVVGGGLFNYRPILRWSAADVFEAHAAAGIRPNPLYRQGMSRVGCMPCINAGKLELREIARRFPEHVERIAEWERLVSEVCRPGSPVSFFHQGTTGHTGQASTIWKVVDWSKTSRGGRQYDLLADAEPATACSSAYGLCE,not soluble
12,MFAVDPQMNQTVNSPKGQLLLRTLAMPADTNANGDIFGGWIMSQLDLAGGILAKEISCGRIVTVSVSSITFKKPVKVGDVVCCYGECTKIGRTSMSINLEVWVKPVKEEGVGERFQVCEATFNYVAIDANGRPRAISLSNGSQKSSLEHHHHHH,not soluble
13,MQIRNSHLYSASRLVQNTFNASSTKEAANTIAKNNESAALSATQTARTHEGDSKGKSSNGSRSHLRSMRYAAYLAGSAYLYDKTVNDFFLSTTSLNDGKQGFTSDARLQKAEKKAEANYHAYHNRANFGGVAPTRSSLLPKLCGENLFVTMLDFRAATKVHMKNLIDTKEAHDSIANNISCIMGERVKPELLKKHGIVQTPPDFDITKGASYDCKNKYSLSGVPNQETGSYGYASRSVSNPFIEKGENHHARAINSERALTPRNCVDALQPLLQKSERLSPEAQFRAGQALLILRPLYCSSENWGDAHKVLMPFLEKKGLVSSQENQKLGATRPFTQTDMEKGIARRNTSLAGPTLNKLNIFLQKSIYNKDEKAISDLTAKKLGEMKYIPIAHFKMNEDVSSFEDSSGLADSFTGYNVSAYINHARLLSGEDRLSKKDVIAIVGCLNAIYDNASSERHTLREIAHGCFVGAGYTVEDAEDFYNDACKAAATEFYGGRAINVQSQLYSSSVDKPDS,not soluble
14,GPGSMEFIMNSVYAIDPIYLLMSAVAQQMLAMAWFDCIVGQIDRYYVAADKGVRRVEHAITRYPGIMVSATTFACSLLRSLVVLTVVSMCNCSTLYQYQSAAMVAVMIGMMRVHRTFSCHRPIQIFVTETGYEMAAAMTAAVVCYYMKKYNF,soluble
15,NETEATLPVFTLEQVAEHHSPDDCWMAIHGKVYDLTPYVPNHPGPAGMMLVWCGQESTEAWETKSYGEPHSSLAARLLQRYLIGTLEEIT,soluble
16,MSLNGDYQLTIDKMLESGVSSNPNQIINYSGKKTFTYKEFRERVYRLAKALISIGVKKGDTVAVIDWDTYVYLEAYFAVPMIGAVLHTVNVRYPQDLIYYTMDHAEDKYVIVRDEFVPILSKNKEAFYFIKGWIIYSEYGNVPDELSPKYIYDELMSKNYDIELPEISENDLATTFYTSGTTGIPKGVQFTHRQIVLHAISSGLALSDRPISLTADDVIMPLVPMFHVHAWGVPYMTIMSGRQYVLPGRYDFDHIIDLIAQENITVIAMVPSILYMIVTNPNVGKIAGRKIRAIIGGGALPEGLQKAAEKLGIMAISGYGLSETAPILTLATYNSDVKKLPLEEQKKYHLKTGIPIPLVQLRVIDDKWNDVPRDEKTIGEIVVRAPWLTSVYVKNKEGTEALWKGGWMHTGDLAVMDKFGYIKIVDREKDAVKSGGEFIPSLILEDAISACPGVVENAVVGKPHEKWGERPVAFYTGTAKPEEIRKCLEDIVRQGRIAKFWIPDDFINVKEFVKTSTGKIDKKVLREMLKKEGHHHHHH,soluble
17,MNDQYHRAARDGYLELLKEATRKELNAPDEDGMTPTLWAAYHGNLESLRLIVSRGGDPDKCDIWGNTPLHLAASNGHLHCLSFLVSFGANIWCLDNDYHTPLDMAAMKGHMECVRYLDSIAAKQSSLNPKLVGKLKDKAFREAERRIRECAKLQRRHHERMERRYRRELAERSDTLSFSSLTSSTLSRRLQHLALGSHLPYSQATLHGTARGKTKMQKKLERRKQGGEGTFKVSEDGRKSARSLSGLQLGSDVMFVRQGTYANPKEWGRAPLRDMFLSDEDSVSRATLAAEPAHSEVSTDSGHDSLFTRPGLGTMVFRRNYLSSGLHGLGREDGGLDGVGAPRGRLQSSPSLDDDSLGSANSLQDRSCGEELPWDELDLGLDEDLEPETSPLETFLASLHMEDFAALLRQEKIDLEALMLCSDLDLRSISVPLGPRKKILGAVRRRRQAMERPPALEDTEL,soluble
18,MVTAEIRLYITEGEVEDYRVFLERLEQSGLEWRPATPEDADAVIVLAGLWGTRRDEILGAVDLARKSSKPIITVRPYGLENVPPELEAVSSEVVGWNPHCIRDALEDALDVI,not soluble
19,MSLKFVGIVGSNAEQSYNRMLLEFIRKNFKTKFELEVLEIDDIPMFNQDQNWEESFQLRLLNNKITRADGVIIATPEHNHTITAALKSVLEWLSFAVHPLENKPVMIVGASYYDQGTSRAQIHLRKILDAPGVNAYTLPGNEFLLGKAKEAFDDNGNIINPGTVQFLETCLDNFIKYVGVVSSLRKPKAIESEDLYCQGQIDTTITGIDPDDPDWLDKAAEKVNAVEGDAYVKLDNGLLTVNQLNMFLNAMPFELTYADDNNQFLYYNNNHPDPDTMLGKRVREQVGNRMATVHGSLPPARMKNVEWVIGTLRNGNQEYVRTVVPGTPPEVINTHNYQAMYYPDGSYAGINEIIFNFKPWLDWYLQTTGQRLVGGTTAAPGASAVDATSSASTSTGDAPVDQATDATSGASEHEGHHHHHH,soluble
20,MKALRGMISEKGGWNLTVNNDNNTVVSSGGALDLSSGSKNLKIVKDGKKNNVTFDVARDLTLKSIKLDGVTLNETGLFIANGPQITASGINAGSQKITGVAEGTDANDAVNFGQLKKIETEVKEQVAASGFVKQDSDTKYLTIGKDTDGDTINIANNKSDKRT,soluble
21,MAPNASCLCVHVRSEEWDLMTFDANPYDSVKKIKEHVRSKTKVPVQDQVLLLGSKILKPRRSLSSYGIDKEKTIHLTLKVVKPSDEELPLFLVESGDEAKRHLLQVRRSSSVAQVKAMIETKTGIIPETQIVTCNGKRLEDGKMMADYGIRKGNLLFLACYCIGG,soluble
22,MLSPITLEALHILDAIERRGSFAAAANELNRAPSSLSYQIQKLEQDLDLMIFDRSGHRANFTEAGKLILERGRAILAATEKLVNDATLLANGWELDITIALDGIVPAANLFPMVEALGNISKTRVRIQDEILAGCWEALATGRADLLICPRIEALPQDVKAETIGTMKMIWVAAPTHYVHRRSGEFNEEAREKYRAIAIADTAREQPAMSVNILQRQPRLTVSNLDAKCKALVAGLGIGTLPLQVAQPYIDKGELKAIHGSEDLEMDIVLAWRRNQMGEAKSWCIQYLKKNWRWE,not soluble
23,MENSHKRGRPDILHQALLVILTDPVIKGDIFIHTIQSKIIKVNPNMRPPKNYLRFIGLMEQLLKYGKIPINGDETLMEVTNLTLDNIVNRYDLILLSEKGEKINPEEICKLDEKWLLGIGAFPHGDFSDKILNLAKKIYSISGFPLETQQVLCRIFSACNS,soluble
24,MTENNRLSVKLPGLDLKNPIIPASGCFGFGEEYAKYYDLNKLGSIMVKATTLHPRFGNPTPRVAETASGMLNAIGLQNPGLEVIMTEKLPWLNENFPELPIIANVAGSEEADYVAVCAKIGDAANVKAIELNISCPNVKHGGQAFGTDPEVAAALVKACKAVSKVPLYVKLSPNVTDIVPIAKAVEAAGADGLTMINTLMGVRFDLKTRQPILANITGGLSGPAIKPVALKLIHQVAQDVDIPIIGMGGVANAQDVLEMYMAGASAVAVGTANFADPFVCPKIIDKLPELMDQYRIESLESLIQEVKEGKK,soluble
